Data as given in patent US20210388096A1.

Molecular target: human Fn14 on cells (NFkB/HEK293 reporter cells, A375 cells) (human) (UniProt Q9NP84)
Test: cell-based or functional assay

Chain of human Fn14 on cells (NFkB/HEK293 reporter cells, A375 cells) (human) (Q9NP84 28-129): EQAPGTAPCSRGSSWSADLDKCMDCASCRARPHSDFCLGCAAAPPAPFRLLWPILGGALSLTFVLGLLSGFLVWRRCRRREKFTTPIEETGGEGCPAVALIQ

B1: mouse anti-human Fn14 antibody CRCBT-06-002 (antibody, from another filing, V domains shown)
VH: EVKLQQSGGGLVQPGGSMKLSCVASGFTFSYYWMNWVRQSPEQGLEWIAEIRLQSNDYPTHYAESVKGRFTISRDDSKNSVYLQMNNLRPEDTGIYYCACRYADYFDHWGQGTTLTVSS
VL: DTVLTQSPASLVVSLGQRATISCRASQSVSTSDYSYIHWYQQKPGQPPKFLIKYASNRDSGVPARFSGSGSGTDFTLNIHPVEEDDTAIYYCQHSWEIPPTFGAGTKLELQR
B1 showed an IC50 (ng/mL), inhibition of Tweak-induced NFkB activation (luciferase reporter, NFkB/HEK293 cells), geometric mean of three trials of 115 ng/mL.
